The values below come from publication PMC11619453.

In this assay the target is ORF59HA full-length (KSHV DNA polymerase processivity factor ORF59 with an in-frame HA tag, from iSLK.BAC16-ORF59HA) (Kaposi's sarcoma-associated herpesvirus (KSHV, human herpesvirus 8), BAC16).
ORF59HA full-length (KSHV DNA polymerase processivity factor ORF59 with an in-frame HA tag, from iSLK.BAC16-ORF59HA) (Kaposi's sarcoma-associated herpesvirus (KSHV, human herpesvirus 8), BAC16), sequence (F5HID2 whole entry): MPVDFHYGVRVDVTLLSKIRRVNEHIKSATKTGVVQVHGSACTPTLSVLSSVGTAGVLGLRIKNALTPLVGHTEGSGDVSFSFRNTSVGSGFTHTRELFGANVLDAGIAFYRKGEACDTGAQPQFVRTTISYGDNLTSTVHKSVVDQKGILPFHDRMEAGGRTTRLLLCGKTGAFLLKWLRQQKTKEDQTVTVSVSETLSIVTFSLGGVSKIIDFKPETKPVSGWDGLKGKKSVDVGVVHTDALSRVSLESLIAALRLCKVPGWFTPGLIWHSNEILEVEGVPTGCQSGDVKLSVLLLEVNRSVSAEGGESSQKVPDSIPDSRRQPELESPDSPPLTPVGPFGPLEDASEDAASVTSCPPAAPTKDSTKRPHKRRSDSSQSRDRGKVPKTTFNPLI

B1: ORF57 (KSHV mRNA transcript accumulation protein, MTA) (natural protein)
chain: MVQAMIDMDIMKGILEDSVSSSEFDESRDDETDAPTLEDEQLSEPAEPPADERIRGTQSAQGIPPPLGRIPKKSQGRSQLRSEIQFCSPLSRPRSPSPVNRYGKKIKFGTAGQNTRPPPEKRPRRRPRDRLQYGRTTRGGQCRAAPKRATRRPQVNCQRQDDDVRQGVSDAVKKLRLPASMIIDGESPRFDDSIIPRHHGACFNVFIPAPPSHVPEVFTDRDITALIRAGGKDDELINKKISAKKIDHLHRQMLSFVTSRHNQAYWVSCRRETAAAGGLQTLGAFVEEQMTWAQTVVRHGGWFDEKDIDIILDTAIFVCNAFVTRFRLLHLSCVFDKQSELALIKQVAYLVAMGNRLVEACNLLGEVKLNFRGGLLLAFVLTIPGMQSRRSISARGQELFRTLLEYYRPGDVMGLLNVIVMEHHSLCRNSECAAATRAAMGSAKFNKGLFFYPLS
B1 registered a viral DNA accumulation (qPCR of ORF26, 72 hpi) in 59HA-WT iSLK cells transfected with 30–100DsRed, against control cells of 5 fold.
